# Data: US20160115200A1, “New Use for JNK Inhibitor Molecules for Treatment of Various Diseases” (XIGEN INFLAMMATION LTD., priority 2013, published 2016)
# What was measured:
# Assay in all cases: kinase inhibition
# [1] = biological target: His-JNK2 (ref 14-329, Upstate) (UniProt P45984)
# [2] = biological target: His-JNK1 (ref 14-327, Upstate) (UniProt P45983)
# [3] = biological target: His-JNK3 (ref 14-501, Upstate) (UniProt P53779)
# His-JNK3 (ref 14-501, Upstate), sequence (P53779 other isoform, or with tags, fused parts or gaps): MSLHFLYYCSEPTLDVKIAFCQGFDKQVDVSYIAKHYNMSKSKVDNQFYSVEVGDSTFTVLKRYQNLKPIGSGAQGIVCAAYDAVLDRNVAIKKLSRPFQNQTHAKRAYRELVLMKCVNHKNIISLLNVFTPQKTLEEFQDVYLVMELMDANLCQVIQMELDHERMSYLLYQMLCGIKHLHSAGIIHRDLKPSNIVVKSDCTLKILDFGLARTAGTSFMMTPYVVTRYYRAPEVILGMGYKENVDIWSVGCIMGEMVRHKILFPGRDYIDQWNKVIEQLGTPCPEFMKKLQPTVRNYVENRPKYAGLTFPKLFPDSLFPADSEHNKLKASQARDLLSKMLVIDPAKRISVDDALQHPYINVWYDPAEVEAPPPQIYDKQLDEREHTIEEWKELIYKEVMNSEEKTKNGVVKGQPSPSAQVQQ
# His-JNK1 (ref 14-327, Upstate), sequence (P45983 other isoform, or with tags, fused parts or gaps): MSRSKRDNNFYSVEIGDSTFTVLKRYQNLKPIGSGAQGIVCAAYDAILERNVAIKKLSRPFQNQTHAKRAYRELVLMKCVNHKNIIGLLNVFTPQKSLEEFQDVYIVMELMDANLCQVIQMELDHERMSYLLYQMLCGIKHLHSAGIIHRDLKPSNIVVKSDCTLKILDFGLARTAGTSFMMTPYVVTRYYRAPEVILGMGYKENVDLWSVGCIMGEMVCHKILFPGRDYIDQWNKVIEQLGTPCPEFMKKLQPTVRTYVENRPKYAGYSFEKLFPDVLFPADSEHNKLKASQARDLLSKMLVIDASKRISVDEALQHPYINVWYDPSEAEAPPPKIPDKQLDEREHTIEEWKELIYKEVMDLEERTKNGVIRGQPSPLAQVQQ
substance,measurement,setting,value
D-TAT-IB1,IC50,[1],0.802 µM
same,IC50,[2],24.4 µM
same,IC50,[3],1.29 µM
